Measurements as given in US20170306050A1.

Tests used:
Assay in all cases: cell-based or functional assay
[1] = target: T1, CXCL11
T1 sequence (O14625 22-94, species assumed, looked up): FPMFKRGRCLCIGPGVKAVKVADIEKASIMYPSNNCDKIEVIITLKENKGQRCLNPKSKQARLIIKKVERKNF

[2] = target: T2, CXCL9
T2 sequence (Q07325 23-125, species assumed, looked up): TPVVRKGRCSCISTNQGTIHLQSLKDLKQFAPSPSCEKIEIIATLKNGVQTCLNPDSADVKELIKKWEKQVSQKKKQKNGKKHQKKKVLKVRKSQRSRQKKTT

[3] = target: CXCL10
Sequence of CXCL10 (P02778 22-98): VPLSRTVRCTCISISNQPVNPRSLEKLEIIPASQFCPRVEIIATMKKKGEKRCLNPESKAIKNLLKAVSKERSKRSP

Sequence of MMP9 (Example 10, in vitro enzymatic analyses) (enzyme) (P41245 108-730): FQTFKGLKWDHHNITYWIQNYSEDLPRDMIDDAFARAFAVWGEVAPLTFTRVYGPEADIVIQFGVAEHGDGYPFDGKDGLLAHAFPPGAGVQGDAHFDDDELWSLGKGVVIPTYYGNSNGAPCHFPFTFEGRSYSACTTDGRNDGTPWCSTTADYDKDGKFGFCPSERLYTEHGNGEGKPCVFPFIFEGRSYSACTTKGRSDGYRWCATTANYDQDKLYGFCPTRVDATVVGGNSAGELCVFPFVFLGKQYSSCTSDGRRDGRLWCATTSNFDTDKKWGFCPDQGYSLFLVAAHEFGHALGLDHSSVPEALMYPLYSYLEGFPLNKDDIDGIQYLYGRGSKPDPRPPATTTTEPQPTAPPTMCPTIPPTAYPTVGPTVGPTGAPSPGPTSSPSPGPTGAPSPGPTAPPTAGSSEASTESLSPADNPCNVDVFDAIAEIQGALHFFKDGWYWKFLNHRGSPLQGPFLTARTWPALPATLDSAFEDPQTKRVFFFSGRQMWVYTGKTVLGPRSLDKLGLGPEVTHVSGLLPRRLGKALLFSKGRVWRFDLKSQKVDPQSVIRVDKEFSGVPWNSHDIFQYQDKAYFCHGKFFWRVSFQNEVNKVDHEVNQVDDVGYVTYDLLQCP

in vitro enzymatic cleavage; T cell migration assay [1]: < 88% | in vitro enzymatic cleavage; T cell migration assay [2]: < 88% | in vitro enzymatic cleavage; T cell migration assay [3]: < 88%
Substance: MMP9 (Example 10, in vitro enzymatic analyses) (enzyme)
